The source of these data is article PMC2950913 (Nature structural & molecular biology, 2010).

This assay deals with T1, RAD51 recombinase (human, UniProt Q06609 1-339).
T1 sequence: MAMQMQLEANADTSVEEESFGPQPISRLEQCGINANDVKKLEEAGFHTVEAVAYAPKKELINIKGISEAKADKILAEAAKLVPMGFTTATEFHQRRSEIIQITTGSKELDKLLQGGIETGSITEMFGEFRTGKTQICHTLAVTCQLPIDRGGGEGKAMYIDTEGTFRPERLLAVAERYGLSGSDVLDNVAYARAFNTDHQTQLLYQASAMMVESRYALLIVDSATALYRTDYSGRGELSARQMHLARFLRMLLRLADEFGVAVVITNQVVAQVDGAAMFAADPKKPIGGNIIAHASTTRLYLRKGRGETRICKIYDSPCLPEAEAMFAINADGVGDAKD
The assay can be described thus: pull-down.

B1: GST-tagged PALB2 1-184 fragment (domain or fragment)
chain: MDEPPGKPLSCEEKEKLKEKLAFLKREYSKTLARLQRAQRAEKIKHSIKKTVEEQDCLSQQDLSPQLKHSEPKNKICVYDKLHIKTHLDEETGEKTSITLDVGPESFNPGDGPGGLPIQRTDDTQEHFPHRVSDPSGEQKQKLPSRRKKQQKRTFISQERDCVFGTDSLRLSGKRLKEQEEISS
Take B1: the binding result is “binds”.
